Experimental data from patent US20020037288A1.

Tests used:
[1] = biological target: HM1.24 antigen protein (human); assay: FCM, indirect method, 25 ug/ml antibody; JM cells (T cell line)
[2] = biological target: HM1.24 antigen protein (human); assay: FCM, indirect method, 25 ug/ml antibody; CESS cells (B cell line)
[3] = biological target: HM1.24 antigen protein (human); assay: FCM, indirect method, 25 ug/ml antibody; EB-3 cells (B cell line)
[4] = biological target: HM1.24 antigen protein (human); assay: FCM, indirect method, 25 ug/ml antibody; KT-3 cells (T cell line)
[5] = biological target: HM1.24 antigen protein (human); assay: FCM, indirect method, 25 ug/ml antibody; MT-1 cells (T cell line)
[6] = biological target: HM1.24 antigen protein (human); assay: FCM, indirect method, 25 ug/ml antibody; MC116 cells (B cell line)
[7] = biological target: HM1.24 antigen protein (human); assay: FCM, indirect method, 25 ug/ml antibody; Jijoye cells (B cell line)
[8] = biological target: HM1.24 antigen protein (human); assay: FCM, indirect method, 25 ug/ml antibody; Jurkat cells (T cell line)
[9] = biological target: HM1.24 antigen protein (human); assay: FCM, indirect method, 25 ug/ml antibody; MOLT-4 cells (T cell line)
[10] = biological target: HM1.24 antigen protein (human); assay: FCM, indirect method, 25 ug/ml antibody; CCRF-SB cells (B cell line)
[11] = biological target: HM1.24 antigen protein (human); assay: FCM, indirect method, 25 ug/ml antibody; HPB-ALL cells (T cell line)
[12] = biological target: HM1.24 antigen protein (human); assay: FCM, indirect method, 25 ug/ml antibody; HPB-MLT cells (T cell line)
[13] = biological target: HM1.24 antigen protein (human); assay: FCM, indirect method, 25 ug/ml antibody; SKW 6.4 cells (B cell line)
[14] = biological target: HM1.24 antigen protein (human); assay: FCM, indirect method, 25 ug/ml antibody; CCRF-CEM cells (T cell line)
[15] = biological target: HM1.24 antigen protein (human); assay: FCM, indirect method, 25 ug/ml antibody; RPMI 6410 cells (B cell line)
[16] = biological target: HM1.24 antigen protein (human); assay: FCM, indirect method, 25 ug/ml antibody; RPMI 8402 cells (T cell line)
[17] = biological target: HM1.24 antigen protein (human); assay: FCM, indirect method, 25 ug/ml antibody; CCRF-HSB-2 cells (T cell line)

percentage of HM1.24 antigen-positive cells (Expression rate) [1]: 99.6%
percentage of HM1.24 antigen-positive cells (Expression rate) [2]: 94.5%
percentage of HM1.24 antigen-positive cells (Expression rate) [3]: 88.3%
percentage of HM1.24 antigen-positive cells (Expression rate) [4]: 96%
percentage of HM1.24 antigen-positive cells (Expression rate) [5]: 95.9%
percentage of HM1.24 antigen-positive cells (Expression rate) [6]: 65%
percentage of HM1.24 antigen-positive cells (Expression rate) [7]: 92.3%
percentage of HM1.24 antigen-positive cells (Expression rate) [8]: 70.9%
percentage of HM1.24 antigen-positive cells (Expression rate) [9]: 84.1%
percentage of HM1.24 antigen-positive cells (Expression rate) [10]: 98.4%
percentage of HM1.24 antigen-positive cells (Expression rate) [11]: 63.8%
percentage of HM1.24 antigen-positive cells (Expression rate) [12]: 94.6%
percentage of HM1.24 antigen-positive cells (Expression rate) [13]: 92.8%
percentage of HM1.24 antigen-positive cells (Expression rate) [14]: 97.8%
percentage of HM1.24 antigen-positive cells (Expression rate) [15]: 94.5%
percentage of HM1.24 antigen-positive cells (Expression rate) [16]: 94%
percentage of HM1.24 antigen-positive cells (Expression rate) [17]: 100%
Substance: mouse anti-HM1.24 monoclonal antibody
